Assay results reported in PMC12406269 (2025).

Legend:
[1] = target: T1, human ISG15 (C78S) (human, UniProt P05161 1-157, C78S); experiment: BLI
[2] = target: T1, human ISG15 (C78S); experiment: BLI; remark: listed apart in the source

T1 sequence (P05161 1-157 C78S): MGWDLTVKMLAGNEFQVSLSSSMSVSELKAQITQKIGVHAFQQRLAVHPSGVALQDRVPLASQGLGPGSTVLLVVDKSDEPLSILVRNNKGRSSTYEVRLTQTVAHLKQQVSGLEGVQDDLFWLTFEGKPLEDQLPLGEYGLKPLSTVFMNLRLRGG

| Kd [1] [nM] | koff [2] [s⁻¹] | Binder |
| --- | --- | --- |
| 2.88 | 0.00388 | C-terminally biotin-tagged VHH_(ISG15-B) (VHH, biotin at the C-terminus (sortase reaction with GGG-Biotin replaces the C-terminal HA tag)) VHH: QVQLVETGGGLVEPGGSLRLSCTVSGINFSSQFMAWFRQGPGKQREWVAIDAGEENVGYLDLVEGRFTISRDTARNTLYLQMNSLKPEDTAVYYCNIFPVLPDSRWGQGTQVTVSS |
| 101 | 0.012 | C-terminally biotin-tagged VHH_(ISG15-A) (VHH, biotin at the C-terminus (sortase reaction with GGG-Biotin replaces the C-terminal HA tag)) VHH: QLQLVETGGGLVQAGGSLRLSCAASGRTFAGLSVKWFRQPPGAEREWVAHITSTGSSTHYADSVKGRFTISRDYDRNMVYLQMSSLKPEDTAVYYCHASTLWPEKHQDYWGQGIQVTVSS |
